Paper PMC5292665, “Structural evidence for Arabidopsis glutathione transferase AtGSTF2 functioning as a transporter of small organic ligands” (FEBS Open Bio, 2016)

Molecular target: the molecule itself
Experiment: crystal structure; AtGSTF2 (10 mg/mL) co-crystallised with small-molecule ligands 1-4 (5 or 10 mM); four structures at 2.00-2.77 Å; dimers in the asymmetric unit

B1: Arabidopsis thaliana phi class glutathione transferase AtGSTF2 (enzyme)
chain: MAGIKVFGHPASIATRRVLIALHEKNLDFELVHVELKDGEHKKEPFLSRNPFGQVPAFEDGDLKLFESRAITQYIAHRYENQGTNLLQTDSKNISQYAIMAIGMQVEDHQFDPVASKLAFEQIFKSIYGLTTDEAVVAEEEAKLAKVLDVYEARLKEFKYLAGETFTLTDLHHIPAIQYLLGTPTKKLFTERPRVNEWVAEITKRPASEKVQ
notes: AtGSTF2, phi class glutathione transferase of Arabidopsis thaliana; no tag is named, and the protein was purified on GSH sepharose; also called phi class GST; source: E. coli Tuner (DE3) with pRARE, purified (GSH sepharose 4B, S75 Superdex gel filtration)
- stoichiometry N: 2
